Assay [1] deals with T1, His-tagged human IGF1R protein (ACRO Biosystems Inc., Cat #: IGR-H5229) (human, UniProt P08069 31-932).
T1 construct: Bought protein; also called hIGF1R-His; not shown: His tag
Briefly: SPR (Biacore 8K) on captured hIGF1R-His, binder injected second (Analyte 2); competitor injected first (Analyte 1): Teprotumumab analog. On the procedure: (§1) Epitope binding assays were performed using Biacore™ 8K biosensor to determine whether two anti-IGF1R antibodies target the same or overlapping epitopes. 1×HBS-EP+ buffer (10 mM 4-(2-hydroxyethyl)-1-piperazineethanesulfonic acid (HEPES), 150 mM NaCl, 3 mM ethylenediaminetetraacetic acid (EDTA) and 0.05% P20, pH7.4) diluted from HBS-EP+buffer (10×) was used as the running buffer throughout the experiment. About 50 RU of hIGF1R-His was captured at a flow rate of 10 μL/min, and 200 nM of the tested antibody (Analyte 1) was injected at a flow rate of 30 uL/min to bind the ligand. Another comparison antibody (Analyte 2) was injected under the same conditions to determine whether the binding of different antibodies interfered with each other. The binding time was 180 s for each antibody.
(§2) The binding value of each antibody was obtained using Biacore Insight Evaluation (Version: 2.0.15.12933). To quantify the interference of one antibody binding to another, a binding ratio was calculated to compare each pair of antibodies. The binding ratio is defined as the binding value of the second antibody (Analyte 2) divided by the binding value of the first antibody (Analyte 1). The threshold to determine the block or non-block is 0.3.
A general note: SPR reads the build-up and loss of mass on a sensor chip optically.

In assay [2] the target is T2, human insulin receptor INSR on cells (human, UniProt P06213 28-1382).
T2 construct: Expressed on CHO-S cells; also called hINSR; CHO-S-hINSR cells
T2 sequence (P06213 other isoform, or with tags, fused parts or gaps limits assumed): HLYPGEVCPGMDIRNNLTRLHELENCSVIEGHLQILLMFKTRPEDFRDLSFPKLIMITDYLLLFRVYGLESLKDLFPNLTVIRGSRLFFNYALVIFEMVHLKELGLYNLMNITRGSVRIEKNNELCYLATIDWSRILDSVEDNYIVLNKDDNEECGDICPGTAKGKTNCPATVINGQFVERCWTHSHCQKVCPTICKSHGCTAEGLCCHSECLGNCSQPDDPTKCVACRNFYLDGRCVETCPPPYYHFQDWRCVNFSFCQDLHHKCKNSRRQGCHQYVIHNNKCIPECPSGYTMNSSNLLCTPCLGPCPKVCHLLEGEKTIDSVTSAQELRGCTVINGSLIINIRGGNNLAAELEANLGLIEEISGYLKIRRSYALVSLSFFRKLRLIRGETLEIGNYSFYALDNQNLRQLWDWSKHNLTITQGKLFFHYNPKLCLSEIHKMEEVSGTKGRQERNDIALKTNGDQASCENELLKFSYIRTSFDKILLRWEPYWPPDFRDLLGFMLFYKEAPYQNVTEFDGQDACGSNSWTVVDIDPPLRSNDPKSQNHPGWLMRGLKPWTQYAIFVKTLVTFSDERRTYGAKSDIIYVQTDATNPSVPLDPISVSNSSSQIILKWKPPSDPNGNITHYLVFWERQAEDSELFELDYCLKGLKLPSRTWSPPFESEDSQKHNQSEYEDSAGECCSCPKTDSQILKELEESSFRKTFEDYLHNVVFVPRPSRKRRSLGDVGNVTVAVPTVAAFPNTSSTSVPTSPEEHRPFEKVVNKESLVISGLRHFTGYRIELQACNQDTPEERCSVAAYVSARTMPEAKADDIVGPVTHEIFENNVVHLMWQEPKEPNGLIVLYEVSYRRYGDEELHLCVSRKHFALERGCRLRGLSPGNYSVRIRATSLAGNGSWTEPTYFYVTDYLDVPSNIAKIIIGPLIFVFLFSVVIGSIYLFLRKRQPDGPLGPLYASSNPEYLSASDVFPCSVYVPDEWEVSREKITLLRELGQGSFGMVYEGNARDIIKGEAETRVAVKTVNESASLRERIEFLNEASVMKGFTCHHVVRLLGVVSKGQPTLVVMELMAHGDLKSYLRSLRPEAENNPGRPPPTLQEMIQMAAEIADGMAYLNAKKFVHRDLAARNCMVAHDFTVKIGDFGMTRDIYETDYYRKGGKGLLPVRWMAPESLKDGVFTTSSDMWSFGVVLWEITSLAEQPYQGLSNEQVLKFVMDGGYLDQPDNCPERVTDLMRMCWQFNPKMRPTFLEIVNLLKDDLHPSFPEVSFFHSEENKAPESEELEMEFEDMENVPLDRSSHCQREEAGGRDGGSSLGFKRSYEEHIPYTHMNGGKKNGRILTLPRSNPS
Briefly: flow cytometry on CHO-S-hINSR cells, antibody 20 µg/mL. On the procedure:
(§3) INSR (insulin receptor) and IGF1R are both members of the superfamily of receptor tyrosine kinases (RTKs). The binding activity of anti-IGF1R antibodies to human IGF1R, human INSR and monkey IGF1R was verified by flow cytometry. Briefly, CHO-S-hIGF1R cells (expressing human IGF1R (SEQ ID NO: 45), CHO-S-fasIGF1R cells (expressing cynomolgus monkey IGF1R (SEQ ID NO: 46) and CHO-S-hINSR (expressing SEQ ID NO: 47) were plated in a 96-well plate at a density of 2×10⁵ cells/well respectively. Purified anti-IGF1R antibody with a concentration of 20 μg/mL was added to each well and was incubated at 4° C. for 30 minutes. Then, after one wash with PBS, the cells were incubated with the secondary antibody Alexa Fluor® 647 anti-human IgG Fcγ (Jackson ImmunoResearch Laboratories, Inc., Cat #: 109-606-170) at 4° C. for 15 minutes before flow cytometry analysis. Human IgG1 was used as ISO control.
A general note: A flow cytometer gives signals particle by particle.

The target of assay [3] is T3, cynomolgus monkey IGF1R on cells (cynomolgus monkey, UniProt P08069 31-1367 (human entry)).
T3 construct: Expressed on CHO-S cells; also called fasIGF1R; CHO-S-fasIGF1R cells
T3 sequence (P08069 other isoform, or with tags, fused parts or gaps limits assumed): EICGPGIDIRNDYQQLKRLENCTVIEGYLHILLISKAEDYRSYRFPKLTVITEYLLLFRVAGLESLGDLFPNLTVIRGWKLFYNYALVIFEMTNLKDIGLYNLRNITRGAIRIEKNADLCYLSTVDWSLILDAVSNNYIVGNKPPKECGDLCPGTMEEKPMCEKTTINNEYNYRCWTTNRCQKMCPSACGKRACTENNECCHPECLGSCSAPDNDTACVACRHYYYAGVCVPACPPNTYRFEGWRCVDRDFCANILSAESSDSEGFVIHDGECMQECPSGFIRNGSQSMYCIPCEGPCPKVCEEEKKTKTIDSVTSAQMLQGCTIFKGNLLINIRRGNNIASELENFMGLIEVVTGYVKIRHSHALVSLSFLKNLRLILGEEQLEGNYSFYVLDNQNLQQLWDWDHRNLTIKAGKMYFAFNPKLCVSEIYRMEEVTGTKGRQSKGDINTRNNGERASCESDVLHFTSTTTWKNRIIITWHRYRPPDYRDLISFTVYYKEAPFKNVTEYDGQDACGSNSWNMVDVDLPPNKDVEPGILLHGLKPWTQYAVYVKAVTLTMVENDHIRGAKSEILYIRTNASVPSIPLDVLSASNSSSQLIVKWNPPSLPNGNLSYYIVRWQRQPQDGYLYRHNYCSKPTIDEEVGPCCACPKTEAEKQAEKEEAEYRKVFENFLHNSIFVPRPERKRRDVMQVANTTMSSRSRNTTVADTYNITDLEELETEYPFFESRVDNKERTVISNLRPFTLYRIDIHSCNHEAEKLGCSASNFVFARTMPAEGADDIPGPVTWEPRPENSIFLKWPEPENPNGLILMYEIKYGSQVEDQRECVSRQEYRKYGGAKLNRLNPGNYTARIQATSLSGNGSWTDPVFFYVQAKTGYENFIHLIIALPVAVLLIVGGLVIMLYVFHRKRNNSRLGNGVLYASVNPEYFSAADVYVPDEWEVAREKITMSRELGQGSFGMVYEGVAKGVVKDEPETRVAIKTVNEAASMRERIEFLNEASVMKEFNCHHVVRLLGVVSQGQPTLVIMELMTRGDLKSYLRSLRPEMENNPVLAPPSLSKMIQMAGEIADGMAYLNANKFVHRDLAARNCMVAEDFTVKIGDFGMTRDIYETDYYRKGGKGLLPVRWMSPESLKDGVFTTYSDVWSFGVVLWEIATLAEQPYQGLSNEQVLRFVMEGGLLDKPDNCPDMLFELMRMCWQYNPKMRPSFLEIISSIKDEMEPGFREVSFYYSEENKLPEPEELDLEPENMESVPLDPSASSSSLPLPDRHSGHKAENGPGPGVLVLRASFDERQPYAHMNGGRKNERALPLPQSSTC
The assay is described as follows: flow cytometry on CHO-S-fasIGF1R cells, antibody 20 µg/mL. Here is the method: as §3

The target in assay [4] is T2, human insulin receptor INSR on cells. The assay is described as follows: flow cytometry on CHO-S-hINSR cells. Here is the method: as §3
The target of assay [5] is T4, human IGF1R (insulin-like growth factor 1 receptor) on cells (human, UniProt P08069 31-1367).
T4 construct: also called hIGF1R; CHO-S-hIGF1R cells
T4 sequence (P08069 31-1367 limits assumed): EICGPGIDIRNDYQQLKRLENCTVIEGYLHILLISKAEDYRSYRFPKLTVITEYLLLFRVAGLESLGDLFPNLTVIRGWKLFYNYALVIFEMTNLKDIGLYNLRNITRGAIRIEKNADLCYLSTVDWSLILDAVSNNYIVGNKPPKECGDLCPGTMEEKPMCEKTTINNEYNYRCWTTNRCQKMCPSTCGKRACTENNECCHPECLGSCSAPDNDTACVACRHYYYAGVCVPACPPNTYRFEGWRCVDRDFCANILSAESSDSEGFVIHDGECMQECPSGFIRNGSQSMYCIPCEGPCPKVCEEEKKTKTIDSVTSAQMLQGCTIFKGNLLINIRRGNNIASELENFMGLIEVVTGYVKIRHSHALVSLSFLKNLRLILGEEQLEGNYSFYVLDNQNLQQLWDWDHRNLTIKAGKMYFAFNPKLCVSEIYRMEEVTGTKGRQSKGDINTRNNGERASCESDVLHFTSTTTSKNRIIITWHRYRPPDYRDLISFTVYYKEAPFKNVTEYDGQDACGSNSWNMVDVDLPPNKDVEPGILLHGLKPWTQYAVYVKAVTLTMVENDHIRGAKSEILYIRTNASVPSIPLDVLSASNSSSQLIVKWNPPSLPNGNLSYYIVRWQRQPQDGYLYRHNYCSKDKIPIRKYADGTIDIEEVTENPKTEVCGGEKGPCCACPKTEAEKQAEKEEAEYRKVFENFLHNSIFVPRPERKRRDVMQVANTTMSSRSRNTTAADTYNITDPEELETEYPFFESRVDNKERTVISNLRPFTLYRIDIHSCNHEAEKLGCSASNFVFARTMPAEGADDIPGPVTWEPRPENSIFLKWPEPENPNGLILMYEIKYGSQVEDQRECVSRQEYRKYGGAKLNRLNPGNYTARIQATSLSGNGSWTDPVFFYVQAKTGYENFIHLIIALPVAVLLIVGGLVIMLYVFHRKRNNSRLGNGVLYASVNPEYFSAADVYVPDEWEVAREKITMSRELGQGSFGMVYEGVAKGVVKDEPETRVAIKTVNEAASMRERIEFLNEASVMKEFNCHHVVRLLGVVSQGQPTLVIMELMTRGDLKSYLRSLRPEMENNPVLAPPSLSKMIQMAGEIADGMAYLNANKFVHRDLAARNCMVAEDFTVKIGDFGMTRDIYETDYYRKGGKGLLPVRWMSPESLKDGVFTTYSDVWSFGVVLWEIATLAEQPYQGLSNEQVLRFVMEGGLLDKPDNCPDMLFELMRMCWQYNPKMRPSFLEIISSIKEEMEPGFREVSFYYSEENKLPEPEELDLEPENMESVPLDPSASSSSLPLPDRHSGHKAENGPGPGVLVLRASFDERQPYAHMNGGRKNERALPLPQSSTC
Briefly: flow cytometry on CHO-S-hIGF1R cells, antibody 20 µg/mL. On the procedure: as §3

In assay [6] the target is T1, His-tagged human IGF1R protein (ACRO …). The assay is described as follows: SPR (Biacore 8K) on captured hIGF1R-His, binder injected second (Analyte 2); competitor injected first (Analyte 1): 10G1. On the procedure: as §1, §2

T1 sequence (P08069 31-932): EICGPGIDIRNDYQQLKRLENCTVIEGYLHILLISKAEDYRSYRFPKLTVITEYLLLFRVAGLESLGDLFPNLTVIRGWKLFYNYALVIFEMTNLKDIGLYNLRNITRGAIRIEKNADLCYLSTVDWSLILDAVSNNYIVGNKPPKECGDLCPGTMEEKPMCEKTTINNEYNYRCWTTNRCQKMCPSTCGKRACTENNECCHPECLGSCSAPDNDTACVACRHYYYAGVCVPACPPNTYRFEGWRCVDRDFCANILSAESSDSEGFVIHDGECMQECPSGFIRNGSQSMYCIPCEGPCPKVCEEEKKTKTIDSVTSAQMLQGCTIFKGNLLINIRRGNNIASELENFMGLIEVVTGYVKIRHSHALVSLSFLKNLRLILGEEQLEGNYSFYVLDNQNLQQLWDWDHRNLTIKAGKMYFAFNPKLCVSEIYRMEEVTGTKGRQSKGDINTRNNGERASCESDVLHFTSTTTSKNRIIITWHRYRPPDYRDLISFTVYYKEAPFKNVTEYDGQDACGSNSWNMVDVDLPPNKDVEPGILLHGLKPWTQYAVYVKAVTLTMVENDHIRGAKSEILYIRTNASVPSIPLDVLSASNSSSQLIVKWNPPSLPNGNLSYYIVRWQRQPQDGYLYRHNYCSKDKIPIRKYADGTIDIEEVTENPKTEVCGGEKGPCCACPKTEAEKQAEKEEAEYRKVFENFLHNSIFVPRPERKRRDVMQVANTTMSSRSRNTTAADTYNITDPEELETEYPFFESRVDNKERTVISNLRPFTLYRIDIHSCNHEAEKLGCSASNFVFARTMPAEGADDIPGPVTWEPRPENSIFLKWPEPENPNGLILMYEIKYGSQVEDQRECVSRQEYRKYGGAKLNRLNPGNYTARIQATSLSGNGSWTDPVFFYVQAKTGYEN

B1: anti-IGF1R antibody 12A4 (antibody, V domains shown)
VH: EVQLVQSGGGEIRPGGSLRLSCAASGFTFADYGMSWVRQAPGEGLEWVSEIDWTGGSKLYADSVKGRFTISRDNAKNSLFLQMNSLRAEDTALYYCVRDRGAVSPKYYYYGMDVWGQGTTVTVSS
VL: EIVLTQSPSSLSASVGDRVTITCRASQGIRNDLGWYQQKPGKAPKRLIYAASRLQSGVPSRFSGSGSGTDFTLTISSLQPEDFATYYCLQHNSYPYTFGQGTKLEIK
As for B1, the “binding ratio (Analyte 2 / Analyte 1)” value in assay [1] was 0.01; in assay [6], -0.01. Besides, the “Percentage of positive cells” value was determined as 0.4% in assay [2], 54.4% in assay [3] and 50.3% in assay [5]. The binding result in assay [4] is recorded as “no binding (tested: 20 µg/mL)”.

B2: anti-IGF1R antibody 10D1 (antibody, human IgG1, V domains shown)
VH: QVQLQQSGGGVVRPGGSLRLSCAASGFTFADYGMSWVRQVPGKGLEWVSGINWNGGSTDYADSVKGRFTISRDNAKHSLYLQMNSLRAEDTAFYYCARDRGAVSRRYYYYGMDVWGLGTTVTVSS
VL: AIQLTQSPSSLSASVGDRVTITCRASQDIRNDLGWYQLKPGKAPKRLIYAASRLQSGVPSGFSGSGSGTEFTLTISSLQPEDFATYYCLQHNSYPYTFGQGTKLEIK
With B2, the “binding ratio (Analyte 2 / Analyte 1)” value is 0.03 in assay [1] and 0.02 in assay [6]. In addition, the “Percentage of positive cells” value in assay [2] was determined as 1.5%; in assay [3] it was 64.8%; in assay [5], 36.5%. Further, the binding result in assay [4] is “no binding (tested: 20 µg/mL)”.

B3: anti-IGF1R antibody 10G1 (antibody, human IgG1, V domains shown)
VH: QVQLVESGGGLVKPGGSLRLSCAASEFTFSDYYMSWIRQSPGKGLEWVSYISNSGSFTNYADSVKGRFTISRDNAKNSLYLQMNSLRAEDSAIYYCVRDQAPVTSKYYYYGMDVWGQGTTVTVSS
VL: EIVLTQSPSSLSASVGDRVTITCRASQGIRNDFAWYQQKPGKAPKRLIYAASRLQRGVPSRFSGSGSGTEFTLTISSLQPEDFATYYCLQHNSYPYTFGQGTKLEIK
Turning to B3, the “binding ratio (Analyte 2 / Analyte 1)” value in assay [1] was -0.03; in assay [6] it was -0.01. Further, the entries for the “Percentage of positive cells” value in assay [2], in assay [3] and in assay [5] were 0.7%, 73.9% and 46.4%, respectively. The binding result in assay [4] is listed as “no binding (tested: 20 µg/mL)”.

B4: anti-IGF1R antibody 12D1 (antibody, human IgG1, V domains shown)
VH: QVQLVESGGGVVRPGGSLRLSCAASGFTFDDYGMSWVRQVPGKGLEWVSGINWNGGSTDYADSVKGRFTISREKAKNSLYLQMNSLRAEDTALYYCVRDRGAVTRRYYYYGMDVWGQGTTVTVSS
VL: DIQMTQSPSSLSASVGDRVTITCRASQDIRNDLGWYQLKPGKAPKRLIYAASRLQSGVPSRFSGSGSGTEFTLTISSLQPEDFATYYCLQHNSYPYTFGQGTKLEIK
On to B4, for which the figures for the “binding ratio (Analyte 2 / Analyte 1)” value in assay [1] and in assay [6] were 0.01 and 0, respectively. In addition, the “Percentage of positive cells” value came to 0.5% in assay [2], 60.7% in assay [3] and 39.3% in assay [5]. Further, in assay [4], the binding result is on record as “no binding (tested: 20 µg/mL)”.

The values above are taken from US20260258141A1 (BIOCYTOGEN PHARMACEUTICALS BEIJING, published 2026).
